Measurements as given in patent US20250152742A1, “COMPOSITIONS AND METHODS FOR NEUROLOGICAL DISEASES” (Trames Bio, Inc., priority 2022, published 2025).

Tested on: engineered chimeric receptor SEQ ID NO: 33 and its mutants (human α7-nAChR ligand binding domain / human GlyRα1 ion pore domain) in Lenti-X 293T cells
Experiment: YFP fluorescence quenching anion reporter plate reader assay (percent quench, EC50)
Type: cell-based
Conditions: for YFP fluorescence quenching using CNL001 (percent quench): receptor named in row; for YFP fluorescence quenching using Varenicline, 3 nM var: ligand Varenicline 3 nM; for YFP fluorescence quenching using Varenicline, 30 nM var: ligand Varenicline 30 nM; for YFP fluorescence quenching using Varenicline, 300 nM var: ligand Varenicline 300 nM; for YFP fluorescence quenching using Varenicline, 500 nM var: ligand Varenicline 500 nM; for YFP fluorescence quenching using Varenicline, 1 uM var: ligand Varenicline 1 uM
Description: To screen these mutant LGICs for those having novel response profiles to ligands, an anion reporter assay was developed to assess the function of the LGICs in a high throughput format. In this assay, cells expressing a YFP reporter whose fluorescence is quenched in the presence of anion are transfected with DNA encoding the channel of interest. Upon exposure to ligand, channels that are activated will flux anion, resulting in a dose-dependent quench of the YFP that can be detected on a plate reader. The greater the quench signal (i.e., the more positive the value), the higher the ligand activity on the receptor is.
Lenti-X 293T cells (LX293T, Clontech) were maintained in DMEM containing 10% FBS and 1% penicillin/streptomycin (Invitrogen). […] Two days before assay, cells were split at a density of 20,000 cells/well in a 96-well tissue culture plate coated with poly-d lysine (Thermo Scientific). The next day, the cells were transiently transfected with 0.1 μg of DNA per well using standard Fugene protocol (Promega). On the day of assay, cells were washed 2 times in 1X extracellular solution (1X ECS: 140 mM NaCl, 5 mM KCl, 1 mM MgCl2, 2 mM CaCl2, 10 mM HEPES, 10 mM glucose, pH 7.2, mOsms 300). After the last wash, 100 μL of 1X ECS was added to the wells and the plate was incubated at 37° C. for 30 min. While incubating the plate, the drugs were diluted to a 2X concentration in 1X ECS-Nal (same components as 1X ECS except the 140 mM NaCl was replaced by 140 mM Nal). The plates were then read on a Flexstation3 (Molecular Devices). Each well, 8 wells at a time, of the plate is read for 2 min using a Flexstation3 (Molecular Devices) as follows: 1) a baseline YFP fluorescence is read for 17 sec, 2) 100 μL of ligand is added, and 3) the changes in YFP fluorescence are then measured every 1.3 sec for 1 minute and 43 seconds. The percent quench is calculated from the average fluorescence of the last 10 seconds of the read divided by the baseline average of the first 15 seconds prior to the ligand addition.
FIGS. 1A-1J provide heat maps of the percent quench of YFP fluorescence following stimulation by various doses of either acetylcholine or the non-native ligand as indicated in the Figures. CODA71 (SEQ ID NO: 33) was used as a control, and CODA75 (SEQ ID NO: 29, a non-responding chimeric engineered receptor) was used as the negative control. Quenching of the fluorescence signal, as indicated by blue shaded cells, indicate the level of engineered receptor activation by the non-native ligand at that concentration.

B1: CODA326: engineered receptor: L131A in SEQ ID NO: 33 (protein)
chain: MRCSPGGVWLALAASLLHVSLQGEFQRKLYKELVKNYNPLERPVANDSQPLTVYFSLSLLQIMDVDEKNQVLTTNIWLQMSWTDHYLQWNVSEYPGVKTVRFPDGQIWKPDILLYNSADERFDATFHTNVAVNSSGHCQYLPPGIFKSSCPMDLKNFPMDVQTCKLKFGSWSYGGWSLDLQMQEADISGYIPNGEWDLVGIPGKRSERFYECCKEPYPDVTFTVTMRRRMGYYLIQMYIPSLLIVILSWISFWINMDAAPARVGLGITTVLTMTTQSSGSRASLPKVSYVKAIDIWMAVCLLFVFSALLEYAAVNFVSRQHKELLRFRRKRRHHKSPMLNLFQEDEAGEGRFNFSAYGMGPACLQAKDGISVKGANNSNTTNPPPAPSKSPEEMRKLFIQRAKKIDKISRIGFPMAFLIFNMFYWIIYKIVRREDVHNQ
modifications: synthetic sequence of chimeric LGIC
YFP fluorescence quenching using CNL001 (percent quench) (1 nM CNL001, first column so headed): 76.424%
YFP fluorescence quenching using CNL001 (percent quench) (1 nM CNL001, second column so headed): 80.567%
YFP fluorescence quenching using TC-5619/Bradanicline (percent quench) (3 nM brd (TC-5619/Bradanicline)): 72.24%
YFP fluorescence quenching using CNL001 (percent quench) (10 nM CNL001, first column so headed): 80.284%
YFP fluorescence quenching using CNL001 (percent quench) (10 nM CNL001, second column so headed): 81.232%
YFP fluorescence quenching using TC-6683 (percent quench) (30 nM TC-6683): −16.28%
YFP fluorescence quenching using TC-5619/Bradanicline (percent quench) (30 nM brd (TC-5619/Bradanicline)): 77.4%
YFP fluorescence quenching using CNL001 (percent quench) (50 nM CNL001, first column so headed): 81.575%
YFP fluorescence quenching using CNL001 (percent quench) (50 nM CNL001, second column so headed): 82.544%
YFP fluorescence quenching using ABT-126 (percent quench) (50 nM abt (ABT-126)): −21.91%
YFP fluorescence quenching using CNL001 (percent quench) (100 nM CNL001, first column so headed): 81%
YFP fluorescence quenching using CNL001 (percent quench) (100 nM CNL001, second column so headed): 81.718%
YFP fluorescence quenching (percent quench) (100 nM CNL002): 27.88%
YFP fluorescence quenching using ABT-126 (percent quench) (100 nM abt (ABT-126)): −0.5%
YFP fluorescence quenching using AZD-0328 (percent quench) (100 nM azd0328): 80.39%
YFP fluorescence quenching using TC-6683 (percent quench) (300 nM TC-6683): −11.73%
YFP fluorescence quenching using ABT-126 (percent quench) (300 nM abt (ABT-126)): 34.86%
YFP fluorescence quenching using AZD-0328 (percent quench) (300 nM azd0328): 82.07%
YFP fluorescence quenching using TC-5619/Bradanicline (percent quench) (300 nM brd (TC-5619/Bradanicline)): 78.02%
YFP fluorescence quenching using CNL001 (percent quench) (1 uM CNL001, first column so headed): 82.334%
YFP fluorescence quenching using CNL001 (percent quench) (1 uM CNL001, second column so headed): 81.539%
YFP fluorescence quenching (percent quench) (1 uM CNL002): 73.79%
YFP fluorescence quenching using ABT-126 (percent quench) (1 uM abt (ABT-126)): 56.66%
YFP fluorescence quenching using TC-6683 (percent quench) (3 uM TC-6683): −2.38%
YFP fluorescence quenching (percent quench) (10 uM ach (acetylcholine)): 7.43%
YFP fluorescence quenching (percent quench) (30 uM CNL002): 75.89%
YFP fluorescence quenching using TC-6683 (percent quench) (30 uM TC-6683): −9.77%
YFP fluorescence quenching using AZD-0328 (percent quench) (30 uM azd0328): 82.23%
YFP fluorescence quenching using TC-6683 (percent quench) (100 uM TC-6683): 0.97%
YFP fluorescence quenching (percent quench) (100 uM ach (acetylcholine)): 73.57%
YFP fluorescence quenching (percent quench) (1 mM ach (acetylcholine)): 71.8%
YFP fluorescence quenching (percent quench) (3 mM ach (acetylcholine)): 74.49%
YFP fluorescence quenching using Facinicline, 30 nM fac (ligand Facinicline 30 nM): 69.94
YFP fluorescence quenching using Facinicline, 300 nM fac (ligand Facinicline 300 nM): 80.07
YFP fluorescence quenching using Facinicline, 30 uM fac (ligand Facinicline 30 uM): 78.32
YFP fluorescence quenching using TC-6987, 1 uM tc6987 (ligand TC-6987 1 uM): 73.37
YFP fluorescence quenching using TC-6987, 10 uM tc6987 (ligand TC-6987 10 uM): 78.18
YFP fluorescence quenching using TC-6987, 500 uM tc6987 (ligand TC-6987 500 uM): 75.42
YFP fluorescence quenching using Varenicline, 3 nM var (first column): −5.939
YFP fluorescence quenching using Varenicline, 3 nM var (second column): −2.294
YFP fluorescence quenching using Varenicline, 30 nM var (first column): 68.663
YFP fluorescence quenching using Varenicline, 30 nM var (second column): 70.718
YFP fluorescence quenching using Varenicline, 300 nM var (first column): 79.88
YFP fluorescence quenching using Varenicline, 300 nM var (second column): 79.742
YFP fluorescence quenching using Varenicline, 500 nM var (first column): 79.311
YFP fluorescence quenching using Varenicline, 500 nM var (second column): 80.029
YFP fluorescence quenching using Varenicline, 1 uM var (first column): 80.952
YFP fluorescence quenching using Varenicline, 1 uM var (second column): 79.329
